# B1: rat GluA1 amino-terminal domain (P4-A374), tags removed (domain or fragment, UniProt P19490 22-392, looked up)
# chain: PNNIQIGGLFPNQQSQEHAAFRFALSQLTEPPKLLPQIDIVNISDSFEMTYRFCSQFSKGVYAIFGFYERRTVNMLTSFCGALHVCFITPSFPVDTSNQFVLQLRPELQEALISIIDHYKWQTFVYIYDADRGLSVLQRVLDTAAEKNWQVTAVNILTTTEEGYRMLFQDLEKKKERLVVVDCESERLNAILGQIVKLEKNGIGYHYILANLGFMDIDLNKFKESGANVTGFQLVNYTDTIPARIMQQWRTSDSRDHTRVDWKRPKYTSALTYDGVKVMAEAFQSLRRQRIDISRRGNAGDCLANPAVPWGQGIDIQRALQQVRFEGLTGNVQFNEKGRRTNYTLHVIEMKHDGIRKIGYWNEDDKFVPAA
# Legend:
# [1] = molecular target: GluA2 ATD (Rattus norvegicus) (UniProt P19491); conditions: cited from earlier work
# GluA2 ATD (Rattus norvegicus), sequence (P19491 22-398): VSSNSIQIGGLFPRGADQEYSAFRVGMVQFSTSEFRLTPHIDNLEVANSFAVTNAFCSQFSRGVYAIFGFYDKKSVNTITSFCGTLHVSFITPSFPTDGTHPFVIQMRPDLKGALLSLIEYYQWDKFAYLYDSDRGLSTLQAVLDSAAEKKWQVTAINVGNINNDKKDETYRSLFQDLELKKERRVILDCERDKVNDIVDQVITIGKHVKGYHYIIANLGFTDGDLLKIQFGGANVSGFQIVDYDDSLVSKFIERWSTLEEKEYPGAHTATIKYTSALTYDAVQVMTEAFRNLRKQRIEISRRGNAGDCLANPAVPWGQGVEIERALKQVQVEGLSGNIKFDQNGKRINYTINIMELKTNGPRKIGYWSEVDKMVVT
# crystal structure = molecular target: the molecule itself; test: crystal structure
Molecule,Kd [1] [nM],binding result (crystal structure)
GluA1 ATD (from UniProt P19490),0.4,
B1,,binds

# From paper PMC3296483 (Biochemical Journal, 2011)
